Laboratory results as given in patent US20140356376.

How the values were obtained:
[1] = tested on: thioFAB 4497 MP-LAFGA-QSY7
[2] = tested on: thio-S4497 HC v1-MP-LAFG-PABC-(piperazinoBOR) AAC-193
[3] = tested on: thioFAB 4497 MP-LAFAA-QSY7

staphopain B
100%: Percent cleavage pH 7.2 [1] | Percent cleavage pH 5 [2] | Percent cleavage pH 7.2 [2] | Percent cleavage pH 7.2 [3]
